Measurements reported in publication PMC9283540.

Assays:
[1] = molecular target: TipsytheTRex immunity repressor (WT of study stock) (Mycobacteriophage TipsytheTRex (cluster A)) (UniProt A0A2D1GKF7); test: EMSA; details: 0.25 uM labeled DNA; EMSA: 20 mM Tris pH 7.0, 25 mM NaCl, 1 mM DTT, 100 ug/mL BSA, 5% glycerol, 0.25 uM FAM-DNA, room temperature 30 min, 5% native gel in 1x TAE
[2] = molecular target: TipsytheTRex repressor D104A (Mycobacteriophage TipsytheTRex (cluster A)) (UniProt A0A2D1GKF7); test: EMSA; details: 0.25 uM labeled DNA; ~3.5-fold weaker than WT; EMSA: 20 mM Tris pH 7.0, 25 mM NaCl, 1 mM DTT, 100 ug/mL BSA, 5% glycerol, 0.25 uM FAM-DNA, room temperature 30 min, 5% native gel in 1x TAE

In the case of “ACGGCCCGCTTGACAGCCACCGAAACATCC (double strand) [30-bp optimal]”, the Kd [1] is reported as 59 nM and the Kd [2] is reported as 207 nM.
